The assay addresses SNAP-25 (rat) (UniProt P60881).

The substance WGA-LHN/A conjugate (enzyme) registered an IC50, inhibition of glycine release from eSC neurons (3 days) (microgrammes/ml) of 0.06 and an IC50, inhibition of substance P release from eDRG neurons (3 days) (microgrammes/ml) of 0.34.

The values above are taken from patent publication US20060121056A1.
